Reference: patent US20230114801A1 (SYSTIMMUNE, published 2023)

Legend:
human CD3 [1] = molecular target: T1, human CD3 (human, UniProt P07766 23-126; P04234 22-105); assay: BLI (Octet), binder on AHC sensor, 100 nM human antigen, 1:1 fit
T1 construct: also called His-tagged human CD3; human CD3 (Acro CDD-H52W1)

human EGFR [2] = molecular target: T2, human EGFR (human, UniProt P00533 25-645, limits assumed); assay: as above
T2 construct: Soluble antigen in Octet; construct not described

human HER3 = molecular target: T3, human HER3 (human, UniProt P21860 20-643); assay: as above
T3 construct: Soluble antigen in Octet; bought; also called human HER3 (Acro ER3-H5223)

human CD3 [3] = molecular target: T1, human CD3; assay: BLI (Octet), binder on AHC sensor, 100 nM human CD3, 1:1 fit
human EGFR [4] = molecular target: T2, human EGFR; assay: BLI (Octet), binder on AHC sensor, 200 nM human EGFR, 1:1 fit

Binder	Kd (human CD3 [1]) [nM]	Kd (human EGFR [2]) [nM]	Kd (human HER3) [nM]	Kd (human CD3 [3]) [nM]	Kd (human EGFR [4]) [nM]
SI-75X18 (other, tri-miniGNC; D3 αCD3* (Fab), D4 αEGFR, D5 αHER3) chain 1: QVQLQESGGRLVQPGEPLSLTCKTSGIDLSSNAIGWVRQAPGKGLEWIGVIFGSGNTYYASWAKGRFTISRSTSTVYLKMNSLRSEDTAIYYCARGGYSSDIWGQGTLVTVSSASTKGPSVFPLAPSSKSTSGGTAALGCLVKDYFPEPVTVSWNSGALTSGVHTFPAVLQSSGLYSLSSVVTVPSSSLGTQTYICNVNHKPSNTKVDKRVEPKSCDKTHTCPPCPAPEAAGGPSVFLFPPKPKDTLMISRTPEVTCVVVDVSHEDPEVKFNWYVDGVEVHNAKTKPREEQYNSTYRVVSVLTVLHQDWLNGKEYKCAVSNKALPAPIEKTISKAKGQPREPQVYTLPPSRDELTKNQVSLSCAVKGFYPSDIAVEWESNGQPENNYKTTPPVLDSDGSFFLVSKLTVDKSRWQQGNVFSCSVMHEALHNHYTQKSLSLSPGGGGGSGGGGSQVQLQQSGPGLVKPSETLSITCTVSGFSLTNYGVHWIRQAPGKGLEWLGVIWSGGNTDYNTPFTSRFTITKDNSKNQVYFKLRSVRADDTAIYYCARALTYYDYEFAYWGQGTLVTVSSGGGGSGGGGSGGGGSGGGGSEIVLTQSPSTLSVSPGERATFSCRASQSIGTNIHWYQQKPGKPPRLLIKYASESISGIPDRFSGSGSGTEFTLTISSVQSEDFAVYYCQQNNNWPTTFGPGTKLTVL chain 2: DPQLTQSPSSLSATVGQRVTINCQSSQSVAKNNNLAWFQQKPGKPPKLLIYSASTLAAGVPSRFSGSGSGTQFTLTITRVQSEDFATYYCSARDSGNIQSFGGGTRVEIKRTVAAPSVFIFPPSDEQLKSGTASVVCLLNNFYPREAKVQWKVDNALQSGNSQESVTEQDSKDSTYSLSSTLTLSKADYEKHKVYACEVTHQGLSSPVTKSFNRGECGGDKTHTCPPCPAPEAAGGPSVFLFPPKPKDTLMISRTPEVTCVVVDVSHEDPEVKFNWYVDGVEVHNAKTKPREEQYNSTYRVVSVLTVLHQDWLNGKEYKCAVSNKALPAPIEKTISKAKGQPREPQVYTLPPSRDELTKNQVSLWCLVKGFYPSDIAVEWESNGQPENNYKTTPPVLDSDGSFFLYSKLTVDKSRWQQGNVFSCSVMHEALHNRFTQKSLSLSPGGGGGSGGGGSQVQLQESGGGLVKPGGSLSLSCAASGFTFSSYWMSWVRQAPGKGLEWVANINRDGSASYYVDSVKGRFTISRDDAKNSLYLQMNSLRAEDTAVYYCARDRGVGYFDLWGRGTLVTVSSGGGGSGGGGSGGGGSQSALTQPASVSGSPGQSITISCTGTSSDVGGYNFVSWYQQHPGKAPKLMIYDVSDRPSGVSDRFSGSKSGNTASLIISGLQADDEADYYCSSYGSSSTHVIFGGGTKVTVL	47.3	2.72	93.8		
SI-75X13 (bispecific antibody, human IgG1, kappa, L234A L235A, bi-miniGNC; D3 αCD3* (Fab), D4 αEGFR VHH) chain 1: QVQLQESGGRLVQPGEPLSLTCKTSGIDLSSNAIGWVRQAPGKGLEWIGVIFGSGNTYYASWAKGRFTISRSTSTVYLKMNSLRSEDTAIYYCARGGYSSDIWGQGTLVTVSSASTKGPSVFPLAPSSKSTSGGTAALGCLVKDYFPEPVTVSWNSGALTSGVHTFPAVLQSSGLYSLSSVVTVPSSSLGTQTYICNVNHKPSNTKVDKRVEPKSCDKTHTCPPCPAPEAAGGPSVFLFPPKPKDTLMISRTPEVTCVVVDVSHEDPEVKFNWYVDGVEVHNAKTKPREEQYNSTYRVVSVLTVLHQDWLNGKEYKCAVSNKALPAPIEKTISKAKGQPREPQVYTLPPSRDELTKNQVSLSCAVKGFYPSDIAVEWESNGQPENNYKTTPPVLDSDGSFFLVSKLTVDKSRWQQGNVFSCSVMHEALHNHYTQKSLSLSPGGGGGSGGGGSEVQLQESGGGLVQAGDSLSLSCLVSGRSFNSYTMGWFRQAPGKEREFVAAILWSGPTTYYADSVKGRFTISRDNAKNTVYLQMNSLKPEDTAVYYCAAALGVLVLAPGNVYSYWGQGTQVTVSS chain 2: DPQLTQSPSSLSATVGQRVTINCQSSQSVAKNNNLAWFQQKPGKPPKLLIYSASTLAAGVPSRFSGSGSGTQFTLTITRVQSEDFATYYCSARDSGNIQSFGGGTRVEIKRTVAAPSVFIFPPSDEQLKSGTASVVCLLNNFYPREAKVQWKVDNALQSGNSQESVTEQDSKDSTYSLSSTLTLSKADYEKHKVYACEVTHQGLSSPVTKSFNRGECGGDKTHTCPPCPAPEAAGGPSVFLFPPKPKDTLMISRTPEVTCVVVDVSHEDPEVKFNWYVDGVEVHNAKTKPREEQYNSTYRVVSVLTVLHQDWLNGKEYKCAVSNKALPAPIEKTISKAKGQPREPQVYTLPPSRDELTKNQVSLWCLVKGFYPSDIAVEWESNGQPENNYKTTPPVLDSDGSFFLYSKLTVDKSRWQQGNVFSCSVMHEALHNRFTQKSLSLSPG				56	34
SI-75X11 (bispecific antibody, human IgG1, kappa, L234A L235A, bi-miniGNC; D1 αEGFR VHH, D3 αCD3* (Fab)) chain 1: EVQLQESGGGLVQAGDSLSLSCLVSGRSFNSYTMGWFRQAPGKEREFVAAILWSGPTTYYADSVKGRFTISRDNAKNTVYLQMNSLKPEDTAVYYCAAALGVLVLAPGNVYSYWGQGTQVTVSSGGGGSGGGGSQVQLQESGGRLVQPGEPLSLTCKTSGIDLSSNAIGWVRQAPGKGLEWIGVIFGSGNTYYASWAKGRFTISRSTSTVYLKMNSLRSEDTAIYYCARGGYSSDIWGQGTLVTVSSASTKGPSVFPLAPSSKSTSGGTAALGCLVKDYFPEPVTVSWNSGALTSGVHTFPAVLQSSGLYSLSSVVTVPSSSLGTQTYICNVNHKPSNTKVDKRVEPKSCDKTHTCPPCPAPEAAGGPSVFLFPPKPKDTLMISRTPEVTCVVVDVSHEDPEVKFNWYVDGVEVHNAKTKPREEQYNSTYRVVSVLTVLHQDWLNGKEYKCAVSNKALPAPIEKTISKAKGQPREPQVYTLPPSRDELTKNQVSLSCAVKGFYPSDIAVEWESNGQPENNYKTTPPVLDSDGSFFLVSKLTVDKSRWQQGNVFSCSVMHEALHNHYTQKSLSLSPG chain 2: DPQLTQSPSSLSATVGQRVTINCQSSQSVAKNNNLAWFQQKPGKPPKLLIYSASTLAAGVPSRFSGSGSGTQFTLTITRVQSEDFATYYCSARDSGNIQSFGGGTRVEIKRTVAAPSVFIFPPSDEQLKSGTASVVCLLNNFYPREAKVQWKVDNALQSGNSQESVTEQDSKDSTYSLSSTLTLSKADYEKHKVYACEVTHQGLSSPVTKSFNRGECGGDKTHTCPPCPAPEAAGGPSVFLFPPKPKDTLMISRTPEVTCVVVDVSHEDPEVKFNWYVDGVEVHNAKTKPREEQYNSTYRVVSVLTVLHQDWLNGKEYKCAVSNKALPAPIEKTISKAKGQPREPQVYTLPPSRDELTKNQVSLWCLVKGFYPSDIAVEWESNGQPENNYKTTPPVLDSDGSFFLYSKLTVDKSRWQQGNVFSCSVMHEALHNRFTQKSLSLSPG				65.7	21.6
SI-75X16 (other, tri-miniGNC; D1 αEGFR, D2 αHER3, D3 αCD3* (Fab)) chain 1: EIVLTQSPSTLSVSPGERATFSCRASQSIGTNIHWYQQKPGKPPRLLIKYASESISGIPDRFSGSGSGTEFTLTISSVQSEDFAVYYCQQNNNWPTTFGPGTKLTVLGGGGSGGGGSGGGGSGGGGSQVQLQQSGPGLVKPSETLSITCTVSGFSLTNYGVHWIRQAPGKGLEWLGVIWSGGNTDYNTPFTSRFTITKDNSKNQVYFKLRSVRADDTAIYYCARALTYYDYEFAYWGQGTLVTVSSGGGGSGGGGSQVQLQESGGRLVQPGEPLSLTCKTSGIDLSSNAIGWVRQAPGKGLEWIGVIFGSGNTYYASWAKGRFTISRSTSTVYLKMNSLRSEDTAIYYCARGGYSSDIWGQGTLVTVSSASTKGPSVFPLAPSSKSTSGGTAALGCLVKDYFPEPVTVSWNSGALTSGVHTFPAVLQSSGLYSLSSVVTVPSSSLGTQTYICNVNHKPSNTKVDKRVEPKSCDKTHTCPPCPAPEAAGGPSVFLFPPKPKDTLMISRTPEVTCVVVDVSHEDPEVKFNWYVDGVEVHNAKTKPREEQYNSTYRVVSVLTVLHQDWLNGKEYKCAVSNKALPAPIEKTISKAKGQPREPQVYTLPPSRDELTKNQVSLSCAVKGFYPSDIAVEWESNGQPENNYKTTPPVLDSDGSFFLVSKLTVDKSRWQQGNVFSCSVMHEALHNHYTQKSLSLSPG chain 2: QSALTQPASVSGSPGQSITISCTGTSSDVGGYNFVSWYQQHPGKAPKLMIYDVSDRPSGVSDRFSGSKSGNTASLIISGLQADDEADYYCSSYGSSSTHVIFGGGTKVTVLGGGGSGGGGSGGGGSGGGGSQVQLQESGGGLVKPGGSLSLSCAASGFTFSSYWMSWVRQAPGKGLEWVANINRDGSASYYVDSVKGRFTISRDDAKNSLYLQMNSLRAEDTAVYYCARDRGVGYFDLWGRGTLVTVSSGGGGSGGGGSDPQLTQSPSSLSATVGQRVTINCQSSQSVAKNNNLAWFQQKPGKPPKLLIYSASTLAAGVPSRFSGSGSGTQFTLTITRVQSEDFATYYCSARDSGNIQSFGGGTRVEIKRTVAAPSVFIFPPSDEQLKSGTASVVCLLNNFYPREAKVQWKVDNALQSGNSQESVTEQDSKDSTYSLSSTLTLSKADYEKHKVYACEVTHQGLSSPVTKSFNRGECGGDKTHTCPPCPAPEAAGGPSVFLFPPKPKDTLMISRTPEVTCVVVDVSHEDPEVKFNWYVDGVEVHNAKTKPREEQYNSTYRVVSVLTVLHQDWLNGKEYKCAVSNKALPAPIEKTISKAKGQPREPQVYTLPPSRDELTKNQVSLWCLVKGFYPSDIAVEWESNGQPENNYKTTPPVLDSDGSFFLYSKLTVDKSRWQQGNVFSCSVMHEALHNRFTQKSLSLSPG	33.4	6.8	113		
